Publication PMC10397247
Like-named read-outs stand apart in the source and are kept apart here. Blank lines part the entries; values can stand above or below the binder they belong to.

Tests used:
Test in all cases: two-hybrid library CCmax;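 also: natural log of median RNA to DNA barcode read ratio; higher means stronger binding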
4H1877-AA = molecular target: T1, 4H1877-AA; details: mean of both orientations
T1 chain: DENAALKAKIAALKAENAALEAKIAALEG

4H1864-AA = molecular target: T2, 4H1864-AA; details: mean of both orientations
T2 chain: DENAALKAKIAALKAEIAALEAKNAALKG

4H3697-AA = molecular target: T3, 4H3697-AA; details: mean of both orientations
T3 chain: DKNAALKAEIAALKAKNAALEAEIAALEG

4H171-AA = molecular target: T4, 4H171-AA
T4 chain: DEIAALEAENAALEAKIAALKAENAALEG

GCN2_T = molecular target: GCN2_T
4H3865-AA = molecular target: T5, 4H3865-AA; details: mean of both orientations
T5 chain: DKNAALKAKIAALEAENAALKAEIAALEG

4H2725-AA = molecular target: T6, 4H2725-AA; details: mean of both orientations
T6 chain: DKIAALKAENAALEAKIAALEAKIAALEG

O14-AA = molecular target: T7, O14-AA; details: mean of both orientations
T7 chain: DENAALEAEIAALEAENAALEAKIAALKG

4H3009-AA = molecular target: T8, 4H3009-AA; details: mean of both orientations
T8 chain: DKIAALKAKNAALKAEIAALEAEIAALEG

4H3049-AA = molecular target: T9, 4H3049-AA; details: mean of both orientations
T9 chain: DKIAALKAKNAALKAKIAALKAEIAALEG

4H2649-AA = molecular target: T10, 4H2649-AA; details: mean of both orientations
T10 chain: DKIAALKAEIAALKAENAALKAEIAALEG

O13-AA = molecular target: T11, O13-AA; details: mean of both orientations
T11 chain: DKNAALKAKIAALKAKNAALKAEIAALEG

4H1478-AA = molecular target: T12, 4H1478-AA; details: mean of both orientations
T12 chain: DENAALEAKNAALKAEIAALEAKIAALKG

4H2109-AA = molecular target: T13, 4H2109-AA; details: mean of both orientations
T13 chain: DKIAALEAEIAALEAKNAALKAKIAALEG

4H536-AA = molecular target: T14, 4H536-AA; details: mean of both orientations
T14 chain: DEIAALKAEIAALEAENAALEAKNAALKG

4H2466-AA = molecular target: T15, 4H2466-AA; details: mean of both orientations
T15 chain: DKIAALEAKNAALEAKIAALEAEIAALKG

4H3588-AA = molecular target: T16, 4H3588-AA; details: mean of both orientations
T16 chain: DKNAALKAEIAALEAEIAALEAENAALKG

4H1845-AA = molecular target: T17, 4H1845-AA; details: mean of both orientations
T17 chain: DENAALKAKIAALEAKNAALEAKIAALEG

4H3343-AA = molecular target: T18, 4H3343-AA; details: mean of both orientations
T18 chain: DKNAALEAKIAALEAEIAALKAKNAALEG

4H678-AA = molecular target: T19, 4H678-AA; details: mean of both orientations
T19 chain: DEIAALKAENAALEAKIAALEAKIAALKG

4H429-AA = molecular target: T20, 4H429-AA; details: mean of both orientations
T20 chain: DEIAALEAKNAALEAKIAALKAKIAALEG

4H2642-AA = molecular target: T21, 4H2642-AA; details: mean of both orientations
T21 chain: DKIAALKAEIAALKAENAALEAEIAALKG

4H48-AA = molecular target: T22, 4H48-AA; details: mean of both orientations
T22 chain: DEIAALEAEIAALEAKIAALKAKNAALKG

4H3112-AA = molecular target: T23, 4H3112-AA; details: mean of both orientations
T23 chain: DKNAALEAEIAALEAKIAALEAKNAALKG

4H3056-AA = molecular target: T24, 4H3056-AA; details: mean of both orientations
T24 chain: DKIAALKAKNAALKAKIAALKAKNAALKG

4H2907-AA = molecular target: T25, 4H2907-AA; details: mean of both orientations
T25 chain: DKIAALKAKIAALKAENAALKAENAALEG

4H1629-AA = molecular target: T26, 4H1629-AA; details: mean of both orientations
T26 chain: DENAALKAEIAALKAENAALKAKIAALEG

4H881-AA = molecular target: T27, 4H881-AA; details: mean of both orientations
T27 chain: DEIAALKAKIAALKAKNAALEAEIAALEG

4H993-AA = molecular target: T28, 4H993-AA; details: mean of both orientations
T28 chain: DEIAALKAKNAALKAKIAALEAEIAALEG

4H3162-AA = molecular target: T29, 4H3162-AA; details: mean of both orientations
T29 chain: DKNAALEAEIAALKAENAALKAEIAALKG

4H3427-AA = molecular target: T30, 4H3427-AA; details: mean of both orientations
T30 chain: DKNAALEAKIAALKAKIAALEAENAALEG

4H2354-AA = molecular target: T31, 4H2354-AA; details: mean of both orientations
T31 chain: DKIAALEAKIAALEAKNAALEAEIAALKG

4H2883-AA = molecular target: T32, 4H2883-AA; details: mean of both orientations
T32 chain: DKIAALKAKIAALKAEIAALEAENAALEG

4H2277-AA = molecular target: T33, 4H2277-AA; details: mean of both orientations
T33 chain: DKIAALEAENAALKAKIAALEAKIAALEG

4H317-AA = molecular target: T34, 4H317-AA; details: mean of both orientations
T34 chain: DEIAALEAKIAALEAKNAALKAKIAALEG

4H1310-AA = molecular target: T35, 4H1310-AA; details: mean of both orientations
T35 chain: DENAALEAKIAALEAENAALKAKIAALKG

4H234-AA = molecular target: T36, 4H234-AA; details: mean of both orientations
T36 chain: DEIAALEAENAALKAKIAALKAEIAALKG

4H2903-AA = molecular target: T37, 4H2903-AA; details: mean of both orientations
T37 chain: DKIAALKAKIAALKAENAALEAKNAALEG

4H3129-AA = molecular target: T38, 4H3129-AA; details: mean of both orientations
T38 chain: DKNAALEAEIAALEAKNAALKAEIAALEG

4H446-AA = molecular target: T39, 4H446-AA; details: mean of both orientations
T39 chain: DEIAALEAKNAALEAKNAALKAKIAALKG

P10-AA = molecular target: T40, P10-AA; details: mean of both orientations
T40 chain: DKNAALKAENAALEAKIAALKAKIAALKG

interaction score (4H1877-AA): -0.357
interaction score (4H1864-AA): 0.56
interaction score (4H3697-AA): -0.69
interaction score (4H171-AA; mean of both orientations): -0.131
interaction score (GCN2_T; mean of both orientations): -1.2
interaction score (4H3865-AA): -1.52
interaction score (4H2725-AA): 0.284
interaction score (O14-AA): 2.08
interaction score (4H3009-AA): 1.33
interaction score (4H3049-AA): -0.544
interaction score (4H2649-AA): -1.29
interaction score (O13-AA): -1.62
interaction score (4H1478-AA): 0.852
interaction score (4H2109-AA): 0.64
interaction score (4H536-AA): 1.04
Binder: DENAALEAKIAALKAKIAALKAEIAALEG [4H1385-AA]

interaction score (4H2466-AA): -1.53
interaction score (4H3588-AA): -1.29
interaction score (4H1845-AA): -1.27
interaction score (4H3343-AA): -0.81
interaction score (4H3697-AA): -1.72
interaction score (4H678-AA): -0.487
interaction score (4H3865-AA): -1.67
interaction score (4H429-AA): 0.137
interaction score (4H2642-AA): -1.43
interaction score (4H48-AA): -1.38
interaction score (4H3112-AA): -2.33
interaction score (4H3056-AA): 1.46
interaction score (4H2907-AA): -1.67
interaction score (4H1629-AA): -1.34
interaction score (4H881-AA): -1.26
interaction score (4H993-AA): 1.59
interaction score (4H3162-AA): -1.68
interaction score (4H3427-AA): -0.781
interaction score (4H2354-AA): -1.55
interaction score (4H2883-AA): -1.14
interaction score (4H2277-AA): -1.07
interaction score (4H317-AA): -1.45
interaction score (4H1310-AA): -1.28
interaction score (4H234-AA): 0.621
Binder: DENAALEAENAALEAEIAALEAEIAALEG [4H1153-AA]

interaction score (GCN2_T): -1.41
interaction score (O14-AA): -0.655
interaction score (4H3049-AA): 0.379
interaction score (O13-AA): 0.34
Binder: DENAALEAKIAALKAEIAALEAKIAALKG [4H1350-AA]

interaction score (4H3588-AA): -1.56
interaction score (4H3697-AA): -1.83
interaction score (4H3865-AA): -1.31
interaction score (4H3112-AA): -1.24
interaction score (4H3056-AA): -1.58
interaction score (4H2907-AA): -1.92
interaction score (4H3162-AA): -1.73
interaction score (4H3427-AA): -1.86
Binder: DENAALKAKIAALEAKNAALEAKIAALEG [4H1845-AA]

interaction score (4H1877-AA): -0.845
interaction score (4H1864-AA): -1.36
interaction score (4H3697-AA): -1.21
interaction score (4H171-AA; mean of both orientations): -1.66
interaction score (4H3865-AA): -0.626
interaction score (4H2725-AA): -1.77
interaction score (4H3009-AA): -1.64
interaction score (4H2649-AA): 0.931
interaction score (4H2109-AA): -1.51
interaction score (4H536-AA): -1.73
Binder: DENAALKAEIAALKAENAALKAEIAALKG [4H1626-AA]

interaction score (4H2903-AA): 1.45
interaction score (4H3129-AA): -1.71
interaction score (4H446-AA): -1.26
interaction score (4H3049-AA): 0.863
Binder: DENAALEAEIAALEAKIAALEAKNAALKG [4H1064-AA]

interaction score (4H1877-AA): -1.1
interaction score (4H1864-AA): 0.435
interaction score (4H3697-AA): -0.767
interaction score (4H171-AA): -1.01
interaction score (4H3865-AA): -0.476
interaction score (4H2725-AA): -1.12
interaction score (O14-AA): -1.07
interaction score (4H3009-AA): 2.13
interaction score (P10-AA): -1.48
interaction score (4H2649-AA): -0.999
interaction score (O13-AA): 2.21
interaction score (4H2109-AA): -0.826
interaction score (4H536-AA): -1.32
Binder: DEIAALEAENAALEAKIAALKAENAALEG [4H171-AA]
